# Measurements from the supplement of paper PMC9170038.
# Test system: MS2 coat protein
# Assay: apparent KD of MS2 coat protein; designed switch direction (-1 OFF switch, 1 ON switch): -1; higher = weaker reporter binding
# In short: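 Normalised cluster fluorescence was curve-fitted, and each design's median over clusters is its apparent KD. Before this, SNAP-549-labelled MS2 coat protein was titrated from 0.7 or 1.5 nM, doubling to 3 µM, over RNA switches transcribed on Illumina chips by stalled E. coli RNA polymerase. Titrations had no input, 200 uM small-molecule ligand, or an oligonucleotide input, and steps lasted 0.8–1.5 h (lowest) to 10–20 min (highest).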
# [1] = input ligand: microRNA oligo, concentration not stated
# [2] = Eterna round: R95, input ligand: FMN 200 uM
# [3] = Eterna round: R95, input ligand: microRNA oligo, concentration not stated
# [4] = Eterna round: R95, input ligand: none
sequence,measurement,setting,value
"CGCCUGUGAGGAUAUUAGUAGUAGUCAGAAAAGACUAUUACUGAGAAGGUACAUGAGGAUCACCCAUGUUGGCG [Mat - Exclusion 4 - Eli Mod - D41] (Eterna round: R97, puzzle: Exclusion 4)",apparent KD of MS2 coat protein,input ligand: FMN 200 uM,14.8 nM
same,apparent KD of MS2 coat protein,input ligand: none,20 nM
"CGCUAGUCAGGAUAUACGAACAUGUCAAAAGACGUGAAGGGACAUGAGGAUCACCCAUGUAGAAGGGACUAGCA [salish99_ex2_r3_014] (Eterna round: R96, puzzle: Exclusion 2)",apparent KD of MS2 coat protein,input ligand: FMN 200 uM,165 nM
same,apparent KD of MS2 coat protein,[1],22.2 nM
same,apparent KD of MS2 coat protein,input ligand: none,31.5 nM
CGCUAGUCAGGAUAUACGAACAUGUCAAAAGACGUGAAGGGACAUGAGGAUCACCCAUGUAGAAGGGACUAGCA [salish99_ex2_r3_014] (puzzle: Exclusion 2),apparent KD of MS2 coat protein,[2],147 nM
same,apparent KD of MS2 coat protein,[3],22.5 nM
same,apparent KD of MS2 coat protein,[4],24.9 nM
"CGCUGGACAGGAUAUGUUCUUGGGCACUUGAGGAUCACCCAAGUCAUCAAGACAACAGGCACAGAAGGGUUUAUGG [salish99_ex5_r4_023] (Eterna round: R97, puzzle: Exclusion 5)",apparent KD of MS2 coat protein,input ligand: FMN 200 uM,20.6 nM
same,apparent KD of MS2 coat protein,input ligand: none,18.4 nM
"CGCUGGACAGGAUAUGUUCUUGGGCACUUGAGGAUCACCCAAGUCAUCGGGACAUCAGGCACAGAAGGGUUUUUGG [salish99_ex5_r4_027] (Eterna round: R97, puzzle: Exclusion 5)",apparent KD of MS2 coat protein,input ligand: FMN 200 uM,18 nM
same,apparent KD of MS2 coat protein,input ligand: none,20.5 nM
"CGCUGGACAGGAUAUGUUUUUGGGCACUUGAGGAUCACCCAAGUCAUCAAGAAAACAGGCACAGAAGGGUUUAUGG [salish99_ex5_r4_022(!)] (Eterna round: R97, puzzle: Exclusion 5)",apparent KD of MS2 coat protein,input ligand: FMN 200 uM,28 nM
same,apparent KD of MS2 coat protein,input ligand: none,25.1 nM
"CGGAGCAGAGGGAGAUCCAACAUGAGGAUCACCCAUGUCUCACAAGCUUUUUGCUCGUCUUAUUGUACCUUGGUGCU [JL ViennaUCT Edcesobi mod 7] (puzzle: Sensor v3, turn-off variant 1)",apparent KD of MS2 coat protein,[2],64.5 nM
same,apparent KD of MS2 coat protein,[3],11.1 nM
same,apparent KD of MS2 coat protein,[4],49.1 nM
"CGGAGCAGAGGGAGAUCCAACAUGAGGAUCACCCAUGUCUCAUAAGCUUUUUGCUCAUCUUAUUGUACCUUGGUGCU [JL ViennaUCT Edcesobi mod 5] (puzzle: Sensor v3, turn-off variant 1)",apparent KD of MS2 coat protein,[2],37.3 nM
same,apparent KD of MS2 coat protein,[3],15.4 nM
same,apparent KD of MS2 coat protein,[4],46.4 nM
"CGGCAAUCCUAGGAUAUGCUAGACGAAAGUCUAGCAGAAGGAGGAACAUGAGGAUCACCCAUGUGUCCUAGCCG [Eli x6 4.02] (Eterna round: R97, puzzle: Exclusion 6)",apparent KD of MS2 coat protein,input ligand: FMN 200 uM,23.5 nM
same,apparent KD of MS2 coat protein,input ligand: none,20.2 nM
"CGGGACCGAGGAUAUACAUGUGGACUCGAGUUGACGUUGGGACAUGAGGAUCACCCAUGUAGAAGGCGGAUCUU [Eternabot (L2) Solution 57] (Eterna round: R97, puzzle: Exclusion 2)",apparent KD of MS2 coat protein,input ligand: FMN 200 uM,270 nM
same,apparent KD of MS2 coat protein,input ligand: none,741 nM
"CGGGACGUCCUGAUAAUAAGACAUGAGGAUCACCCAUGUCGGCAGGAUAUCAGUCCUUACGGUUAUGAGAAGGGUCGGCAACCA [Quatis] (Eterna round: R96, puzzle: Exclusion NG 3)",apparent KD of MS2 coat protein,input ligand: FMN 200 uM,10.9 nM
same,apparent KD of MS2 coat protein,[1],9.05 nM
same,apparent KD of MS2 coat protein,input ligand: none,11.6 nM
"CGGGAGGGACAAGCUUUUUGCACGUCUGUUAUUGAUGCAACAUGAGGAUCACCCAUGUUUAGGGUGUGAGAGGAUGG [JR_SV3TOV2_Sub051] (puzzle: Sensor v3, turn-off variant 2)",apparent KD of MS2 coat protein,[2],373 nM
same,apparent KD of MS2 coat protein,[3],471 nM
same,apparent KD of MS2 coat protein,[4],553 nM
"CGGGUCUGAGGAUAUCCACCCUCAUACAUGAGGAUCACCCAUGUUCACCCUUGGGUUCCCGGAGAAGGCAGUUUUC [Megrez-3.6] (Eterna round: R97, puzzle: Exclusion 5)",apparent KD of MS2 coat protein,input ligand: FMN 200 uM,275 nM
same,apparent KD of MS2 coat protein,input ligand: none,208 nM
"CGGGUGAACAGAGGAUAUCGUACAUGAGGAUCACCCAUGUAAUAAAUGAGAAUUUCGAAUGUAAUCGAGAAGGCUGGAAAACCC [Ostracism 93 - Jieux - Exclusion NG 2] (Eterna round: R96, puzzle: Exclusion NG 2)",apparent KD of MS2 coat protein,input ligand: FMN 200 uM,228 nM
same,apparent KD of MS2 coat protein,[1],115 nM
same,apparent KD of MS2 coat protein,input ligand: none,128 nM
CGGUGCUGAGGAUAUACAUGAGGAUCACCCAUGUGUGCCAGCUAGAAGACUGGCACUUGUAGAAGGCAGUACUG [Mat - Exclusion 3 - Mod of JL D90] (puzzle: Exclusion 3),apparent KD of MS2 coat protein,[3],10.3 nM
CGUACUGAAGUGAGGAUAUUGUCUCGGAUACGAAACAAGAAGGCACAUGAGGAUCACCCAUGUAAACAGUACGA [Malc #30 mod 10] (puzzle: Brourd's mod of Exclusion 4),apparent KD of MS2 coat protein,[3],15.6 nM
CGUGGACUAGGAUAUUUACGAGGCUACAUGAGGAUCACCCAUGUGUUCUCGAGUACCAUGAAAGAAGGAGUAGCGA [Betiatte] (puzzle: Exclusion 5),apparent KD of MS2 coat protein,[3],12 nM
"CGUUUGCAUUUUGCUCGUCACAUGAGGAUCACCCAUGUUAUGCUACAGUACGCUAGGAUCGGCGUCUGAGGGCUUUA [Eternabot (Original) Solution 1] (Eterna round: R97, puzzle: Sensor, turn-off variant 1)",apparent KD of MS2 coat protein,input ligand: FMN 200 uM,25.2 nM
same,apparent KD of MS2 coat protein,input ligand: none,27.7 nM
"CUAAUACAUCAGGAUAUCUAUGAUUAUAGCCAUAGAGAAGGGAUGACAUGAGGAUCACCCAUGUCAAAGGGUGA [eternacac ex6r4 sub21] (Eterna round: R97, puzzle: Exclusion 6)",apparent KD of MS2 coat protein,input ligand: FMN 200 uM,426 nM
same,apparent KD of MS2 coat protein,input ligand: none,879 nM
"CUAGCGAUUGUAGGAUAUCGGACUGUUUCAGUCUGAGAAGGACAUGAGGAUCACCCAUGUGAAGCUACGUGAGUAGCACGCUAG [JL ENG1 3.84] (Eterna round: R96, puzzle: Exclusion NG 1)",apparent KD of MS2 coat protein,input ligand: FMN 200 uM,46.1 nM
same,apparent KD of MS2 coat protein,[1],15.4 nM
same,apparent KD of MS2 coat protein,input ligand: none,24.5 nM
"CUAGGUCGAGGAUAUACAUGAGGAUCACCCAUGUCGGUUCCAUGAGAGCUAGACACUAGUAGAAGGCGGUAGGC [Eternabot (L2) Solution 60] (Eterna round: R97, puzzle: Exclusion 3)",apparent KD of MS2 coat protein,input ligand: FMN 200 uM,26.1 nM
same,apparent KD of MS2 coat protein,input ligand: none,27.8 nM
CUAGUCCGAGGAUAUAUAUUGUGAUACAUGAGGAUCACCCAUGUAAUAAUAUGGAAAUAAAUAGAAGGCGGACUAG [Mat - Exclusion 5 - JL mod - D53] (puzzle: Exclusion 5),apparent KD of MS2 coat protein,[2],56.4 nM
same,apparent KD of MS2 coat protein,[3],36.8 nM
same,apparent KD of MS2 coat protein,[4],27 nM
CUAGUCCGAGGAUAUAUUAAGUGAUACAUGAGGAUCACCCAUGUUAUUUAAUGGAUGUUAAUAGAAGGCGGACUAG [Mat - Exclusion 5 - JL mod - D76] (puzzle: Exclusion 5),apparent KD of MS2 coat protein,[2],55 nM
same,apparent KD of MS2 coat protein,[3],37.7 nM
same,apparent KD of MS2 coat protein,[4],77.8 nM
"CUAUCUUGCAAGGAUAUGCAAUUUAUUAUUUAUGCAGAAGGUGCUACAUGAGGAUCACCCAUGUUUCUGGGUUU [JR_E6_Sub046] (Eterna round: R96, puzzle: Exclusion 6)",apparent KD of MS2 coat protein,input ligand: FMN 200 uM,314 nM
same,apparent KD of MS2 coat protein,[1],116 nM
same,apparent KD of MS2 coat protein,input ligand: none,120 nM
CUAUCUUGCAAGGAUAUGCAAUUUAUUAUUUAUGCAGAAGGUGCUACAUGAGGAUCACCCAUGUUUCUGGGUUU [JR_E6_Sub046] (puzzle: Exclusion 6),apparent KD of MS2 coat protein,[3],117 nM
CUAUUGUGAGGAUAUCAGGUGUGCUAGCGUACUGGUACAUCUGAGAAGGCACAUGAGGAUCACCCAUGUUUCUU [JL-ex4-3.20 Brourd mod] (puzzle: Exclusion 4),apparent KD of MS2 coat protein,[3],18.4 nM
"CUCAGGUGAGGAUAUGCUUAAGGAUCGGUACACCGACACCUGUAGAAGGCACAUGAGGAUCACCCAUGUUAGGC [Eternabot (L1) Solution 68] (Eterna round: R97, puzzle: Exclusion 4)",apparent KD of MS2 coat protein,input ligand: FMN 200 uM,30.1 nM
same,apparent KD of MS2 coat protein,input ligand: none,27.9 nM
"CUCAUUUGUCAGGAUAUCGUGUGGCUAAUUGUACGAGAAGGGACGACAUGAGGAUCACCCAUGUGGUCUUUGAG [JR_Ex6_Sub083] (Eterna round: R97, puzzle: Exclusion 6)",apparent KD of MS2 coat protein,input ligand: FMN 200 uM,196 nM
same,apparent KD of MS2 coat protein,input ligand: none,54.8 nM
"CUCCAUGCCCAGGCUUAGAACAUGAGGAUCACCCAUGUAGAUCCAGAAAAUUUGCUCGUCAGGCAAUUUAUAGAUUG [Eternabot (L1) Solution 9] (Eterna round: R97, puzzle: Sensor, turn-off variant 1)",apparent KD of MS2 coat protein,input ligand: FMN 200 uM,500 nM
same,apparent KD of MS2 coat protein,input ligand: none,687 nM
"CUCCCACAUGAGGAUCACCCAUGUGAGGAUAUGGAGCGCGACCGCGCGGUCGCGUACACCAGAAGGCGCAUGAU [1st #81] (Eterna round: R97, puzzle: Exclusion 1)",apparent KD of MS2 coat protein,input ligand: FMN 200 uM,24.1 nM
same,apparent KD of MS2 coat protein,input ligand: none,21.1 nM
"CUCCGCCGCAGAGGAUAUGGAUGUCGGAGACAUGAGGAUCACCCAUGUAUCCUGUCGAUGAGUACCCAGAAGGUUGUCACGCAU [Eternabot solution 49] (Eterna round: R96, puzzle: Exclusion NG 2)",apparent KD of MS2 coat protein,input ligand: FMN 200 uM,26.4 nM
same,apparent KD of MS2 coat protein,[1],26 nM
same,apparent KD of MS2 coat protein,input ligand: none,26.1 nM
